These results are taken from paper PMC3508296.

The assay concerns the target fibronectin (UniProt P02751). Briefly: SPR. Background: In SPR one partner is held on a chip, and binding of the other changes the refractive index at the surface.

Chain of fibronectin (P02751 32-2477): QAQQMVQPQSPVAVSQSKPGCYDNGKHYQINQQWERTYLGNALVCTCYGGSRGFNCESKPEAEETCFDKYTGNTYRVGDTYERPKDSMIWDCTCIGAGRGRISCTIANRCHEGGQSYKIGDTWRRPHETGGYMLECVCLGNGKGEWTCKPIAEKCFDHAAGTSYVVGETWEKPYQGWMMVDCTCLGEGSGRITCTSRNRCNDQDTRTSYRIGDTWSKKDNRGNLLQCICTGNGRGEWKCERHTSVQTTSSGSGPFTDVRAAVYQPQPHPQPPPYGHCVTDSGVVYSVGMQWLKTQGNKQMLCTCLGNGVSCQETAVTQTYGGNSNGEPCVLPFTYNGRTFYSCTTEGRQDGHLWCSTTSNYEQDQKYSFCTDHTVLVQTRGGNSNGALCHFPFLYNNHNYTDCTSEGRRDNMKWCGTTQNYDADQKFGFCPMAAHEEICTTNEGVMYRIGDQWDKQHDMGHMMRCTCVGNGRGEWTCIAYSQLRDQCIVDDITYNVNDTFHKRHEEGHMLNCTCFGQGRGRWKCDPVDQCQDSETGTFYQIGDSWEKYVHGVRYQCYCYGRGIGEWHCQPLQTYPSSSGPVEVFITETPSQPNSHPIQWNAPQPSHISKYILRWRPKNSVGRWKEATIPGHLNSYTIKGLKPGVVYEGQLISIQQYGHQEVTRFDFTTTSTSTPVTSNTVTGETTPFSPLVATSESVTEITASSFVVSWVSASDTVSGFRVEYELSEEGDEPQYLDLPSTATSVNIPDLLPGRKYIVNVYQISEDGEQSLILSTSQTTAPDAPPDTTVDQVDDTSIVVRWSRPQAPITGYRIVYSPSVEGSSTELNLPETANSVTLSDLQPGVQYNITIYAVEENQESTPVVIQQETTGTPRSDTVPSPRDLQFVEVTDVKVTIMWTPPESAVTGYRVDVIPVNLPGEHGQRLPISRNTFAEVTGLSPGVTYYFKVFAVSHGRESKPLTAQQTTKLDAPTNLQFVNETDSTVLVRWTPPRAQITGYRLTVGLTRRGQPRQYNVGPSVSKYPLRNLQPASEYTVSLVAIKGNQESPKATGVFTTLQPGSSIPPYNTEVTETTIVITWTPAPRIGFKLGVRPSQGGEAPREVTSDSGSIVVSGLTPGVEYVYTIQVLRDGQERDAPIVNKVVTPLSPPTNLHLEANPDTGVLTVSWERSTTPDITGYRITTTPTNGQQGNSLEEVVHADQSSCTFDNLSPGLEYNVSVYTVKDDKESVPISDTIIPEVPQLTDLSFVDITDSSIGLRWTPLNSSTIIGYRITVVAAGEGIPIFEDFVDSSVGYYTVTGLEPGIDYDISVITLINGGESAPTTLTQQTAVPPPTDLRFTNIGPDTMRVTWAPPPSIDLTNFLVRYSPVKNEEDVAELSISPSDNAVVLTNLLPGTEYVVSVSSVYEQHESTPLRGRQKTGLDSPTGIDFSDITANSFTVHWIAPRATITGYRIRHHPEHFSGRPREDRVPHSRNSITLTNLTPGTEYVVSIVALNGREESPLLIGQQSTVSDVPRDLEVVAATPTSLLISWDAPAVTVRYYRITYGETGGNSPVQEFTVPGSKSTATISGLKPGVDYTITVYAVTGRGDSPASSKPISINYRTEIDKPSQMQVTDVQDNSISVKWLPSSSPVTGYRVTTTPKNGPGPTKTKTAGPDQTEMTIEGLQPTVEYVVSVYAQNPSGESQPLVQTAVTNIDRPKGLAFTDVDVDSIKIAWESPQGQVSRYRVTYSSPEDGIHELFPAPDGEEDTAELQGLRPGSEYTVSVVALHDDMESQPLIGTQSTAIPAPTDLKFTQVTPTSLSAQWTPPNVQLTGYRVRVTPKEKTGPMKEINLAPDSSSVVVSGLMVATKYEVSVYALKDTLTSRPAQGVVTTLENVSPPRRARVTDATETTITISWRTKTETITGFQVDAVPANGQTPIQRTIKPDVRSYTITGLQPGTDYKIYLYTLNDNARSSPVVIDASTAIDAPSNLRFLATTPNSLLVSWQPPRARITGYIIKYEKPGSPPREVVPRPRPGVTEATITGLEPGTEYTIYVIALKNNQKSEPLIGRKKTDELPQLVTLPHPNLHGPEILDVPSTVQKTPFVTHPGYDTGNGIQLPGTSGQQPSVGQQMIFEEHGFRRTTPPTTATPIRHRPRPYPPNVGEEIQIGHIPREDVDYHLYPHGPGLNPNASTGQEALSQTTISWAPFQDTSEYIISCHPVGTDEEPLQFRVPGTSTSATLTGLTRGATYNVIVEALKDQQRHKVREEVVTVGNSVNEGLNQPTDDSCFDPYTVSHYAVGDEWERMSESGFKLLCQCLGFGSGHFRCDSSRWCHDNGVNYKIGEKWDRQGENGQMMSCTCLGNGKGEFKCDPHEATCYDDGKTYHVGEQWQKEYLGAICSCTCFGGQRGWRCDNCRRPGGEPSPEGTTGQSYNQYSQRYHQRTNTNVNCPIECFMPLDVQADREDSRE

“BB0347 (natural protein; other documents disagree on this pair)”: the Kd was 0.64 µM, the koff was found to be 0.16 s⁻¹ and the kon is 265000 M⁻¹ s⁻¹.

On to “BBK32 (from UniProt O50835 1-354) (natural protein; other documents disagree on this pair)”, for which the Kd was 0.019 µM, the koff was determined as 0.1 s⁻¹, the kon is 5.21e+06 M⁻¹ s⁻¹ and the t1/2 (calculated from Koff) is 6.93 s.

In general, Kd refers to a measure of binding affinity in units of concentration. A lower Kd goes with higher affinity. The koff is the rate constant with which the complex falls apart. The kon is the rate constant with which the complex forms. A higher kon goes with faster complex formation.
